From a protein production outcome set (Wang et al. 2014)

Assay: label from the status in PepcDB records

## MSLEFFMAKADNPAFEQGQSPRMRLPDSVPLLIVGGGIMGLWAAVKAERLGIGTLLVEAGRLGGGASGGLLGALMPHMPDRWSDKKQFQFDALVALEAEIAGLEAETGLSGGYRRCGRIIPLPKPHLRGIAERHERDAAENWRSGERRFQWHVGERPSVAGWVDDAAGEAGFVFDTLAARVSPRALIALLSAFLRKARHVQVAEGCRVVSLDADAGRAALSSGEEISFGHVVVANGHESFPLIRDALGLEAGVALGQAVKGQAALLDASADPAMPVVFLNGLYIVPHEDGTVAIGSTSEDCFSEPFSTDEKLEKLLVDACTVVPSLAGAPVLERWAGLRPKAVGRDPMVGAMAGTAKLVALSGGFKVSFGLAHFLADAALETVCGHTPVIPSGFRLQEHVSIAVPDFRKFLEHHHHHH
  protein production: failed

## MSLEKQKGLAIITGASQGIGAVIAAGLATDGYRVVLIARSKQNLEKVHDEIMRSNKHVQEPIVLPLDITDCTKADTEIKDIHQKYGAVDILVNAAAMFMDGSLSEPVDNFRKIMEINVIAQYGILKTVTEIMKVQKNGYIFNVASRAAKYGFADGGIYGSTKFALLGLAESLYRELAPLGIRVTTLCPGWVNTDMAKKAGTPFKDEEMIQPDDLLNTIRCLLNLSENVCIKDIVFEMKKSIIEGHHHHHH
  protein production: not failed

## MSLEKWRIYEELTNAVREFESINPVRLIPEVGTNFVYSLPLPYARSTKDVAGVKGRIVKYGNSVKAVGPVEFGASDHLARAVLTYMRFYPEYRSAINIRYSREIIEEIIEIAQERGFKVSFYDRREEPEEIKAKEGATIPWGIETAIKRIKERPDIIYHLGDVGKEPMILVFGRNPREVLEKIKMLIEGHHHHHH
  protein production: not failed

## MSLELEWMSIDDLKLPSNVIDIIKNRGIKKLNPPQTEAVKKGLLDGNRLLLTSPTGSGKTLIAEMGIISFLLKNGGKAIYVTPLRALTNEKYLTFKDWESIGFKVAMTSGDYDTDDAWLKNYDIIITTYEKLDSLWRHRPDWLNEANYFVLDELHYLNDPERGPVVESVTIRAKRRNLLALSATISNYKQIAKWLGAEPVATNWRPVPLMEGVMYPERKKKEYTILFRDNTARKVHGDDAIIAYTLDSLSKNGQVLVFRNSRKMAESTALKIANYMNFVSLDEKAISEILKQLDDIEEGGSDEKELLKSLISKGVAYHHAGLSKALRDIIEESFRKRKIKVIVATPTLAAGVNLPARTVIIGDIYRFNRKIVGYYDEIPVMEYKQMSGRAGRPGFDQIGESIIVVRDKEDVDRVFKKYILSDVEPIESKLGSERAFYTFLLGILSAEGSLSEKQLEAFAYESLLAKSVVDVYFDRAIRWLSEHSFIREENNTFTLTNFGKRVADLYINPFTADIIRKGLEGYKASCEIAYLHLLAFTPDGPLVSVGRNEEEELIELLEDLECELLVEEPYEEDEYSLYLNALKVALIMKDWIDEVDEDTILGKYNIGSGDLRNIVETMDWLTYSAYHLSKELRLDDHSDKLRILNLRVTDGVKEELLELVQIGGVGRKRARLLYNNGIKGLGDVVMNPDRVRNLLGQKLGERVVQEAARLLNRFH
  protein production: failed

## MSLENKENLVVIDLAIAEDSIQKKNIVYDKNGQNHFDVISAFIKSIRGSDPDATLYWLANMVEAGEDPNFIFRRLLISACEDIGLADPNAIVVVQSCCDAFDRVGFPEGLFFLSQASLYLAISPKSNSTKSIFKAMEAIKATNVSLVPNHLKNNASNYLNPHNYQGKWLQQEYLPTDLQGIKFWKPKDSGWEKNKYEDLPKKQKSEGHHHHHH
  protein production: not failed

## MSLESGFLEDAQANLTLRNFYFNRNFTNPTKAQGKAEEWTQSFILDAKSGFTQGTVGFGMDVLGLYSLKLDGGKGTGGTQLLPLDHDGRPADNFGRLGVAFKARLSQTEVKVGEWMPVLPILRSDDGRSLPQTFRGGQITSKEIAGLTLYGGQFRANSPRDDSSMSDMSMFGKAAFTSDRFNFQGAEYAFNDKRTQIALWNAQLKDIYSQQFINLIHSQPLGDWTLGANLGFFYGKEDGSARAGDMENRTWSGLFSAKYGGNTFYVGLQKLTGDSAWMRVNGTSGGTLANDSYNASYDNAKEKSWQVRHDYNFAALGVPGLTLMNRYISGSNVHTATVSDGKEWGRESEVAYTVQSGTLKNLNLKWRNSTMRRDFSNNEFDENRLIISYPLSLLEGHHHHHH
  protein production: not failed

## MSLFIALCGLILAGRLILKNYNPQGVLFFVGIVMMTISIFTNNATFVDKSTGWIGFDVFEYISMVFGKQSGGLGLKIMLIGGFALLMSAIGASQVMVKLTAKPLMKLNSPYLMLALAFILGQMLSLFISSATGLGLLLMATLYPVLIRLGCSKAGVASVLASTCAIEFGPGSGNSILAAQTAGLEITEYFVGEQLPIISVLIIVVAIMHAITQRFFDRNDEKNQTLEPINYEDIESEQSAPFYYVILPMLPLFFMLTFSSLGVKTINVGMATAIILSIFISLVFEFIREREVKPVFEKLQGVFDDMGKVFASVVTLIIAGQTFSMGLKSIGAIDSMLHMASSVGLSAAVIILFMALLTFIISALMGSGNAAFFSFAPMVPQIAHKIGANTVDMILPIQLSAGFGRTISPIAGVIIAVAGISGLSPFDIVRRTLIPMVSGWLLMLILTFSKGGQLEQLMPFLIVILVLSVGVGWIMKRKNNRTQLTQ
  protein production: failed

## MSLFKRSVVSEITSHAGVVFSTLVVVWLSVLLVRLLGEAAGGSIGADVVLGLAAFSTITALPTILAVSLFIAVLTTVTRNYRESEMVVWFASGLSLADWLRPVARVAVPIAMLVAALTLVASPWAYRQIGEYRERFEQRSDLSKVTAGQFAESGRGDRVFFAEDPVRPGDELGAVFARSIDPEWLSVLTASNARSETLPNGDRFLVLGEGHRYDLKPGTPEIRLVNFDQYGVRLESKAGEDPMAEARAAAERFSKARSTMQLVQDNTDSSWSQIMWRVAMPLAALNLALLAIPLGAVNPRLGRSGDLLIAGLVGLLYMNMINLSRAWISSGKISFSIGVWAVHAVVALLAAYLLMRRLRVKAPRNAGRGA
  protein production: failed

## MSLGALPTAEDIDAVVLDFDGTQTDDRVLIDSDGREFVSVHRGDGLGIAALRKSGLTMLILSTEQNPVVAARARKLKIPVLHGIDRKDLALKQWCEEQGIAPERVLYVGNDVNDLPCFALVGWPVAVASAHDVVRGAARAVTTVPGGDGAIREIASWILGPSLDSLDKEGHHHHHH
  protein production: not failed

## MSLGKRMGAELIGTFWLVLGGCGSAVLAASSPLGIGVLGVAFAFGLTVLTMAFAIGHISGCHLNPAVSFGLVVGGRFPAKELLPYVIAQVIGAILAAGVIYLIASGKAGFELSAGLASNGYADHSPGGYTLGAGFVSEVVMTAMFLVVIMGATDARAPAGFAPIAIGLALTLIHLISIPVTNTSVNPARSTGPALFVGGWALQQLWLFWVAPLIGAAIGGALYRGLAKEP
  protein production: failed

## MSLGLDYEPSHLMFLVTVLDDRDGEVLGDAIQKLIEREEVLACHAVPCVTKKNRPGHVLVVLVDGGEDPDRVAEDVARDIMVLTGSTGVDRFDADGVYSVPSRFEDVRVVYGEREWRVSVKIAETEEGEVVTVKAEFDECREIGEETGIPPREVKAMVEAAARVGGWVDLKEREIKVQEGHHHHHH
  protein production: not failed

## MSLGTIIIVDDNKGVLTAVQLLLKNHFSKVITLSSPVSLSTVLREENPEVVLLDMNFTSGINNGNEGLFWLHEIKRQYRDLPVVLFTAYADIDLAVRGIKEGASDFVVKPWDNQKLLETLLNAASQAKDGKKEGHHHHHH
  protein production: not failed

## MSLGVLRYTLRARGHPNVTAGHRTTFEVTVDPEIGETADCIIGVSSSDSISTLPDEMKRAIARESSLVRVILRTENGYDEIRGYGHPELTLDHPTDIVCRKSDYICSRTLMIRADKAAFDLDENLVRDLRKGRELKVEIIVEYEGHHHHHH
  protein production: not failed

## MSLITNAKLYPPRHPRAVHLAHHLAAIAPGVLVTAAIAAAAVGLRAIPGMPGISPMLLAILIGIVAHNGIGTPSWAVPGVKFSLRRVLRFAIILLGLQLTTAQLIEVGGEGLAIIAATLLATFCFTVWFGRVLGVDRKLTELIAAGTSICGASAIIATNTVTRADDEDVAYGVACVTVFGSLAMVSYPLLQSVLNLDAHGFGLWTGASIHEIAQAVAVSFQGGQRAGEFGTIAKLSRVMMLAPLVIGLGMLARVRAKHQPAGDHTATPPMPWFVLGFVAMIGVNEFVAIPHEAKSWIVAITAFLLSMALAAMGLETDLRKLAARGLRPALLGLTASLFIAGFSLALIKLTGWHG
  protein production: failed
